Here are results for one substance from article PMC8189181.

The target of the experiment is Fzd1-mApple. Kind of experiment: quasi-PIE fluorescence cross-correlation spectroscopy (FCCS); live zebrafish embryos co-expressing the EGFP- and mApple-tagged proteins; dorsal cerebellum and midbrain hindbrain boundary; room temperature; FLCS-based statistical filtering of spectral cross talk; apparent Kd.

Turning to Wnt3C80A-EGFP (ligand), the Kd is 313 nM.
